Data reported in the supplement of paper PMC12042874.
± gives the uncertainty stated by the source.

Assay: amyloid nucleation score (Sup35N fusion, yeast selection) (log enrichment); library NNK1; higher = more nucleation; inactive = no reads after selection
Procedure, shortened: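 The nucleation score is a DiMSum log enrichment of output over input reads, centred on the mode score of non-aggregating sequences. Sequences under 100 input reads were excluded, and reads came from Illumina sequencing of plasmid inserts. Psi-negative yeast expressing Sup35N fused to peptides of 20 random codons were induced with 100 μM copper sulfate for 24 hours and grown 7 days at 30°C on medium lacking adenine and uracil. Random libraries had three technical output replicates.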

**Q.** Which amyloid nucleation score does the source give for EYGLVRTLPVFRRVRRKYVG here?
**A.** -0.666 ± 0.67

**Q.** Which amyloid nucleation score does the source give for EYGVSLV here?
**A.** 0.089 ± 0.53

**Q.** For EYIYNIAEWVD, which amyloid nucleation score is on record?
**A.** -1.05 ± 0.79

**Q.** With EYLFCCVCADLFNTWDKSLG as the substance, how does the amyloid nucleation score read?
**A.** 7.29 ± 0.052

**Q.** For EYLSMNRLRERSYYLGNRTF, which amyloid nucleation score is on record?
**A.** 0.077 ± 0.69

**Q.** For EYNYLDDTCWLGQVGRWLWF, which amyloid nucleation score is on record?
**A.** 1.38 ± 0.28

**Q.** Which amyloid nucleation score does the source give for EYRTSSEQTANTFILKPRWA here?
**A.** 1.72 ± 0.4

**Q.** For EYVACVIEDFSVLNVVRQVD, which amyloid nucleation score is on record?
**A.** -0.33 ± 0.21

**Q.** For FADIKYLSTFG, which amyloid nucleation score is on record?
**A.** -0.045 ± 0.37

**Q.** For FAESSVVSFHLCRQMFASTA, which amyloid nucleation score is on record?
**A.** -0.88 ± 0.52

**Q.** For FAHHLYINRMSRFIDARVTI, which amyloid nucleation score is on record?
**A.** 2.37 ± 0.13

**Q.** With FALKIVGVVPVAVGMTIDDW as the substance, how does the amyloid nucleation score read?
**A.** 0.052 ± 0.85

**Q.** With FAQFSAWRTTNGRYKHHFTL as the substance, how does the amyloid nucleation score read?
**A.** -0.256 ± 0.52

**Q.** Which amyloid nucleation score does the source give for FASRNISG here?
**A.** -0.054 ± 0.5

**Q.** With FASVDTRETSSGMGGISKTG as the substance, how does the amyloid nucleation score read?
**A.** -0.742 ± 0.56

**Q.** With FAVSIVSFLRASVVDWVWYT as the substance, how does the amyloid nucleation score read?
**A.** -0.209 ± 0.66

**Q.** Which amyloid nucleation score does the source give for FCAEEGVTRLNPKL here?
**A.** -0.023 ± 0.47

**Q.** For FCDPVYMPSERFWNAYMCTL, which amyloid nucleation score is on record?
**A.** 1.19 ± 0.9

**Q.** With FCFILSNVFLGLWMI as the substance, how does the amyloid nucleation score read?
**A.** -1.37 ± 2.7

**Q.** For FCLIFDGC, which amyloid nucleation score is on record?
**A.** inactive

**Q.** For FCLNHHMVLYSIRRWNVFVY, which amyloid nucleation score is on record?
**A.** -2.16 ± 2.7

**Q.** With FCMTTSVSSNTLV as the substance, how does the amyloid nucleation score read?
**A.** -0.013 ± 0.94

**Q.** Which amyloid nucleation score does the source give for FCNWANLYGTWLMLCVGSGR here?
**A.** 0.712 ± 0.42

**Q.** For FCSRTRMTICVLCYIHLQGR, which amyloid nucleation score is on record?
**A.** 0.521 ± 0.29

**Q.** Which amyloid nucleation score does the source give for FCVSQVFRDLS here?
**A.** -0.315 ± 0.37

**Q.** Which amyloid nucleation score does the source give for FDADGHPLKTPLCMGLSCGG here?
**A.** -0.129 ± 1.6

**Q.** Which amyloid nucleation score does the source give for FDFTNGRISFAFCNNSCCPY here?
**A.** 2.46 ± 0.34

**Q.** For FDLTLCICCLRSECYYITPR, which amyloid nucleation score is on record?
**A.** 8.732 ± 0.049

**Q.** Which amyloid nucleation score does the source give for FDLVYACANPTFGINVRTGR here?
**A.** 2.67 ± 0.12

**Q.** For FDLWLVYVRLPGSHDLDLRA, which amyloid nucleation score is on record?
**A.** 0.61 ± 0.65

**Q.** With FDNAPMSDLG as the substance, how does the amyloid nucleation score read?
**A.** 0.405 ± 0.72

**Q.** With FDNLIVYVTVYFFLTYAPFV as the substance, how does the amyloid nucleation score read?
**A.** 1.41 ± 0.26

**Q.** With FDSLNAYSLSPSMVMKDSRG as the substance, how does the amyloid nucleation score read?
**A.** 0.17 ± 0.18

**Q.** For FDSVESRTAPTRMILLRTLF, which amyloid nucleation score is on record?
**A.** inactive

**Q.** Which amyloid nucleation score does the source give for FEHVPLFTTMPIEEFYRIVY here?
**A.** 0.262 ± 0.28

**Q.** Which amyloid nucleation score does the source give for FENFVASFLPNFGITLRKGQ here?
**A.** 0.043 ± 0.24

**Q.** With FENIDLP as the substance, how does the amyloid nucleation score read?
**A.** -0.364 ± 0.62

**Q.** With FETYFEHYWGCVTYSSMFWS as the substance, how does the amyloid nucleation score read?
**A.** 2.45 ± 0.14

**Q.** Which amyloid nucleation score does the source give for FFALIYI here?
**A.** 0.357 ± 0.36

**Q.** Which amyloid nucleation score does the source give for FFFRKTSY here?
**A.** 0.552 ± 0.87

**Q.** For FFGFMILNYKFSK, which amyloid nucleation score is on record?
**A.** inactive

**Q.** With FFGVLNIPNFCVSMF as the substance, how does the amyloid nucleation score read?
**A.** 0.645 ± 0.69

**Q.** With FFHFTVSGMPGYSRSY as the substance, how does the amyloid nucleation score read?
**A.** 2.73 ± 0.17

**Q.** For FFLTDITTLHYQSRNRLFLT, which amyloid nucleation score is on record?
**A.** -0.581 ± 0.23

**Q.** For FFNDPA, which amyloid nucleation score is on record?
**A.** -0.311 ± 0.47

**Q.** Which amyloid nucleation score does the source give for FFNRTKTHEVDADGALSTL here?
**A.** 0.508 ± 0.88

**Q.** For FFRRDFFFYNSLGMH, which amyloid nucleation score is on record?
**A.** 0.233 ± 1.4

**Q.** Which amyloid nucleation score does the source give for FFYSNALLWSWIVGYSCTRL here?
**A.** 0.537 ± 0.44

**Q.** For FGASIGDGDFRVM, which amyloid nucleation score is on record?
**A.** 0.069 ± 0.53

**Q.** With FGCSSLCTLSTVEE as the substance, how does the amyloid nucleation score read?
**A.** -1.21 ± 0.64

**Q.** For FGDGIDSNVSMVEN, which amyloid nucleation score is on record?
**A.** inactive

**Q.** Which amyloid nucleation score does the source give for FGHKCAIFGNWEF here?
**A.** -0.933 ± 0.84

**Q.** With FGHYFDTLKPYSRALWRVVS as the substance, how does the amyloid nucleation score read?
**A.** -0.641 ± 0.61

**Q.** With FGLKYRSDGVPCPDYLARKY as the substance, how does the amyloid nucleation score read?
**A.** 0.702 ± 0.51

**Q.** With FGLRFAHAHLINWPWMLSGS as the substance, how does the amyloid nucleation score read?
**A.** 0.047 ± 0.76

**Q.** For FGNRDFSQSDYNSCVFATGS, which amyloid nucleation score is on record?
**A.** 2.2 ± 0.44

**Q.** Which amyloid nucleation score does the source give for FGSLRHCFTFNCNPGMGVWV here?
**A.** 2.53 ± 0.16

**Q.** For FGSSPRSDVVKHQNINEEVI, which amyloid nucleation score is on record?
**A.** 0.581 ± 0.61

**Q.** Which amyloid nucleation score does the source give for FHLWHLIVYILALY here?
**A.** -0.955 ± 0.77

**Q.** For FHNRINKPTK, which amyloid nucleation score is on record?
**A.** inactive

**Q.** For FHPAMVVICILWHKR, which amyloid nucleation score is on record?
**A.** 1.62 ± 0.37

**Q.** For FICERPGSRKTTLPTVTVIR, which amyloid nucleation score is on record?
**A.** -0.499 ± 0.98

**Q.** For FIGPRN, which amyloid nucleation score is on record?
**A.** -1.05 ± 1.2

**Q.** With FINRGAGPTLSRGQSRYNSA as the substance, how does the amyloid nucleation score read?
**A.** 0.011 ± 0.3

**Q.** With FIRIVRIYSLEFALYLGVFQ as the substance, how does the amyloid nucleation score read?
**A.** 4.51 ± 0.05

**Q.** For FIVKKFIKSNRLVLMRGSPL, which amyloid nucleation score is on record?
**A.** 0.669 ± 0.49

**Q.** Which amyloid nucleation score does the source give for FIWIGRKRRGGICCDEWKYG here?
**A.** 0.196 ± 1.6

**Q.** For FIWSLVGAQAQSTNRVHHLS, which amyloid nucleation score is on record?
**A.** 1.3 ± 0.67

**Q.** Which amyloid nucleation score does the source give for FKCKSDAPWPWLHSL here?
**A.** 1.37 ± 0.45

**Q.** With FKLMWNFQDLLVLLLRDRRY as the substance, how does the amyloid nucleation score read?
**A.** 0.048 ± 0.62

**Q.** For FKLVI, which amyloid nucleation score is on record?
**A.** 0.697 ± 0.9

**Q.** Which amyloid nucleation score does the source give for FKSASVRRI here?
**A.** -0.822 ± 0.84

**Q.** For FLACGYMFGFRQSYHRPFRF, which amyloid nucleation score is on record?
**A.** 3.35 ± 0.095

**Q.** For FLAYLPSEKC, which amyloid nucleation score is on record?
**A.** -0.267 ± 0.44

**Q.** Which amyloid nucleation score does the source give for FLEFVWRALEM here?
**A.** -1.16 ± 0.86

**Q.** For FLFACFMRVAL, which amyloid nucleation score is on record?
**A.** 1.46 ± 0.24

**Q.** For FLFLTRRWEFVHMLPVSCEV, which amyloid nucleation score is on record?
**A.** -0.817 ± 2.4

**Q.** With FLHRM as the substance, how does the amyloid nucleation score read?
**A.** 0.062 ± 0.75

**Q.** With FLILVSLGELGVTAI as the substance, how does the amyloid nucleation score read?
**A.** inactive

**Q.** Which amyloid nucleation score does the source give for FLMDNDKIHYGYISSVCTSY here?
**A.** inactive

**Q.** Which amyloid nucleation score does the source give for FLMKMKMSVFVLEYSILECM here?
**A.** -1.12 ± 1.1

**Q.** With FLMYFQNRV as the substance, how does the amyloid nucleation score read?
**A.** 0.624 ± 0.33

**Q.** With FLNVARQV as the substance, how does the amyloid nucleation score read?
**A.** 0.101 ± 1.4

**Q.** For FLNYVMDVLGGRIRDVWWFT, which amyloid nucleation score is on record?
**A.** 0.829 ± 0.66

**Q.** With FLPGQNAIFKTLLVCSTVKV as the substance, how does the amyloid nucleation score read?
**A.** -0.675 ± 1.2

**Q.** For FLPLMIASVSWRL, which amyloid nucleation score is on record?
**A.** 0.455 ± 0.64

**Q.** With FLRALCSVGSRHTTPAFDYG as the substance, how does the amyloid nucleation score read?
**A.** 0.351 ± 0.43
